Results: publication doi:10.1101/2021.10.02.462850 (bioRxiv, 2021)

Molecular target: the molecule itself
Assay: crystal structure

B1: RUN1^TIR-E100A (domain or fragment, grapevine, UniProt V9M398 23-198, looked up)
chain: RTITYDVFLSFRGEDTRFNFTDHLYSALGRRGIRTFRDDKLRRGEAIAPELLKAIEESRSSVIVFSENYARSRWCLDALVKIMECHKDKKDPGHAVFPIFYHVDPSHVRKQEGSFGEAFAGYGENLKDKIPRWRTALTEAANLSGWPLQDGYESNQIKEITDSIFRRLKCKRLDAG
  binding result: binds
